Reference: patent publication US5837516A, “Subtilisin variants capable of cleaving substrates containing basic residues” (Genentech, Inc., priority 1995, dated 1998)
Substitutions are numbered along the chain they refer to. Names may count otherwise. Residues, ends and D or L forms follow the SMILES beside them.

Legend:
[1] = target: T1, subtilisin BPN' variant N62D/G166D (mature enzyme SEQ ID NO: 72) (Bacillus amyloliquefaciens, UniProt P00782, G273D/N169D); assay: Kinetic analysis, hydrolysis of succinyl-tetrapeptide-pNA substrates; assay type: biochemical
T1 construct: made in house; host or cells: Bacillus subtilis BG2036 (protease-deficient), secreted
T1 sequence (P00782 108-382 N169D/G273D): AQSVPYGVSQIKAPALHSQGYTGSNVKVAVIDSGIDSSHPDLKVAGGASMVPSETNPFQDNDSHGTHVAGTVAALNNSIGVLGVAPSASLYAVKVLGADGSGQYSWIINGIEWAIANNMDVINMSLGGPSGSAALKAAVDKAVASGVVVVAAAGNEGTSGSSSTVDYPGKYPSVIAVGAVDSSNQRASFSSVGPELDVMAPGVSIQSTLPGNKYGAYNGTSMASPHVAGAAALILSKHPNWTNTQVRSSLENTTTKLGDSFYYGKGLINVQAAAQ
Protocol: (§1) The mature N62D/Y104D/G166D variant was purified and analyzed for its ability to hydrolyze several tetrapeptide-pNA substrates.
(§2) Kinetic analysis of WT, N62D/G166D, and N62D/Y104D/G166D subtilisin BPN'
(§3) Subtilisins were assayed by measuring the initial rates of hydrolysis of p-nitroanilide tetrapeptide substrates in 0.4 mL 20 mM Tris-Cl pH 8.2, 4% (v/v) dimethyl sulfoxide at (25±0.2)° C. as described previously (Estell, D. A., Graycar, T. P., Miller, J. V., Powers, D. B., Burnier, J. P., Ng, P. G. and Wells, J. A. (1986)Science 233:659-663). Enzyme concentrations (E)0 were determined spectrophotometrically using E280 nm 0.1%=1.17 (Matsubara, H.; Kasper, C B.; Brown, D. M.; and Smith, E. L. (1965)J. Biol. Chem.,240:1125-1130.), and were typically 5-50 nM in reactions. Initial rates were determined for nine to twelve different substrate concentrations over the range of 0.001-2.0 mM. Plots of initial rates (v) versus substrate concentration (S) were fitted to the Michaelis-Menton equation, [formula] to determine the kinetic constants kcat and Km (Fersht, A. in "Enzyme Structure and Mechanism", Second edition, Freeman and Co., N.Y.) using the program Kaleidagraph (Synergy Software, Reading, Pa.).

[2] = target: T2, subtilisin BPN' variant N62D/Y104D/G166D (SEQ ID NO: 75) (Bacillus amyloliquefaciens, UniProt P00782, G273D/N169D/Y211D); assay: as above; assay type: biochemical; settings: relative to succinyl-RAKR-pNA
T2 construct: the mature enzyme +1 to +275; made in house; host or cells: Bacillus subtilis BG2036 (protease-deficient), secreted
T2 sequence (P00782 108-382 N169D/Y211D/G273D): T1 sequence (P00782 108-382 N169D/G273D) with Y104D
Protocol: as §1, §2, §3

[3] = target: T3, subtilisin BPN' variant G166D (Bacillus amyloliquefaciens, UniProt P00782, G273D); assay: Kinetic analysis, hydrolysis of suc-AAPX-pna substrates; assay type: biochemical; settings: Lys P1 versus Phe P1 substrate
T3 construct: correct folding and maturation of subtilisin requires autolytic cleavage of its propeptide; made in house; host or cells: Bacillus subtilis BG2036 (protease-deficient), secreted
T3 sequence (P00782 108-382 G273D): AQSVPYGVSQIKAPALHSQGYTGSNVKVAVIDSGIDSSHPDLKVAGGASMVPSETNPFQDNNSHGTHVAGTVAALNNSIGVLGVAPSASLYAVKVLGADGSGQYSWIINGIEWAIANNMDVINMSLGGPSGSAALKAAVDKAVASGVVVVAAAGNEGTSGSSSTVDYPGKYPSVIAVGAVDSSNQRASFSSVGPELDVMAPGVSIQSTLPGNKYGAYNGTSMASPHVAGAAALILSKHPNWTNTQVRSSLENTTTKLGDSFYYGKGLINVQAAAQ
From the text: To probe the effects of the G166E and G166D on specificity at the P1 position we used substrates having the form suc-AAPX-pna (SEQ ID NO: 69) where X was either Lys (SEQ ID NO. 58), Arg (SEQ ID NO. 59), Phe (SEQ ID NO. 56), Met (SEQ ID NO. 60) or Gln (SEQ ID NO. 61). Whereas the wild-type enzyme preferred Phe>Met>Lys>Arg>Gln, the G166E preferred Lys^~ Phe>Arg^~ Met>Gln, and G166D preferred Lys>Phe^~ Arg^~ Met>Gln. Thus, both the acidic substitutions at position 166 caused a shift in preference for basic residues at the P1 site, as previously reported (Wells, J. A., Powers, D. B., Bott, R. R., Graycar, T. P.and Estell, D. A. (1987a), Proc. Natl. Acad. Sci. USA 84:1219-1223).
as §3, with “Plots of initial rates (v) versus substrate concentration (S) were fitted to the Michaelis-Menton equation, [formula] to determine the kinetic constants kcat and Km (Fersht, A. in "Enzyme Structure and Mechanism", Second edition, Freeman and Co., N.Y.) using the program Kaleidagraph (Synergy Software, Reading, Pa.).” left out

[4] = target: T4, subtilisin BPN' variant N62D/G166E (Bacillus amyloliquefaciens, UniProt P00782, G273E/N169D); assay: Kinetic analysis, hydrolysis of suc-AAXX-pna substrates; assay type: biochemical; settings: Lys-Lys versus Lys-Phe substrate
T4 construct: correct folding and maturation of subtilisin requires autolytic cleavage of its propeptide; made in house; host or cells: Bacillus subtilis BG2036 (protease-deficient), secreted
T4 sequence (P00782 108-382 N169D/G273E): as the sequence (P00782 108-382 G273D) above, with N62D, D166E counted along it
Protocol: Despite the less than additive effects seen for the two charged substitutions in the S2 site, we decided to combine the best S2 site variant (N62D) with either of the acidic substitutions in the S1 site. The two double mutants, N62D/G166E and N62D/G166D, were analyzed with substrates having the form, suc-AAXX-pna (SEQ ID NO. 71) where XX was either KK (SEQ ID NO. 66), KR (SEQ ID NO. 67), KF (SEQ ID NO. 62), PK (SEQ ID NO. 58), PF (SEQ ID NO. 56) or AF (SEQ ID NO. 63) (FIG. 4). The wild-type preference was AF>PF^~ KF>KK^~ PK>KR, whereas the double mutants had the preference KK>KR>KF>PK^~ AF>PF. […]
as §3, with “Plots of initial rates (v) versus substrate concentration (S) were fitted to the Michaelis-Menton equation, [formula] to determine the kinetic constants kcat and Km (Fersht, A. in "Enzyme Structure and Mechanism", Second edition, Freeman and Co., N.Y.) using the program Kaleidagraph (Synergy Software, Reading, Pa.).” left out

succinyl-AAPF-pNA = target: T5, succinyl-AAPF-pNA
T5 sequence (peptide, N-terminal succinyl; C-terminal p-nitroanilide (pNA)): AAPF

succinyl-AAKR-pNA = target: T6, succinyl-AAKR-pNA
T6 sequence (peptide, N-terminal succinyl; C-terminal p-nitroanilide (pNA)): AAKR

[5] = substrate: C[C@H](NC(=O)CCC(=O)O)C(=O)N[C@@H](C)C(=O)N1CCC[C@H]1C(=O)N[C@@H](Cc1ccccc1)C(=O)Nc1ccc([N+](=O)[O-])cc1; assay: Kinetic analysis, hydrolysis of succinyl-tetrapeptide-pNA substrates; assay type: biochemical, Bacillus amyloliquefaciens; settings: 20 mM Tris-Cl pH 8.2, 4% DMSO, 25 C
Protocol: as §1, §2, §3

[6] = substrate: C[C@H](NC(=O)CCC(=O)O)C(=O)N[C@@H](C)C(=O)N[C@@H](CCCCN)C(=O)N[C@@H](CCCNC(=N)N)C(=O)Nc1ccc([N+](=O)[O-])cc1; assay: as above; assay type: biochemical, Bacillus amyloliquefaciens; settings: 20 mM Tris-Cl pH 8.2, 4% DMSO, 25 C
Protocol: as §1, §2, §3

[7] = target: T7, succinyl-Ala-Ala-Pro-Lys-pNa
T7 sequence (peptide, N-terminal succinyl; C-terminal p-nitroanilide (pNA)): AAPK

succinyl-KAKR-pNA = target: T8, succinyl-KAKR-pNA
T8 sequence (peptide, N-terminal succinyl; C-terminal p-nitroanilide (pNA)): KAKR

succinyl-RAKR-pNA = target: T9, succinyl-RAKR-pNA
T9 sequence (peptide, N-terminal succinyl; C-terminal p-nitroanilide (pNA)): RAKR

[8] = substrate: C[C@H](NC(=O)[C@H](CCCNC(=N)N)NC(=O)CCC(=O)O)C(=O)N[C@@H](CCCCN)C(=O)N[C@@H](CCCNC(=N)N)C(=O)Nc1ccc([N+](=O)[O-])cc1; assay: Kinetic analysis, hydrolysis of succinyl-tetrapeptide-pNA substrates; assay type: biochemical, Bacillus amyloliquefaciens; settings: other: N62D/Y104D/G166D, 20 mM Tris-Cl pH 8.2, 4% DMSO, 25 C
Protocol: as §1, §2, §3

[9] = substrate: C[C@H](NC(=O)[C@H](CCCCN)NC(=O)CCC(=O)O)C(=O)N[C@@H](CCCCN)C(=O)N[C@@H](CCCNC(=N)N)C(=O)Nc1ccc([N+](=O)[O-])cc1; assay: as above; assay type: biochemical, Bacillus amyloliquefaciens; settings: other: N62D/Y104D/G166D, 20 mM Tris-Cl pH 8.2, 4% DMSO, 25 C
Protocol: as §1, §2, §3

[10] = target: T10, succinyl-Ala-Ala-Lys-Lys-pNa
T10 sequence (peptide, N-terminal succinyl; C-terminal p-nitroanilide (pNA)): AAKK

[11] = target: hGH-AP fusion protein with substrate linker Asn-Leu-Met-Arg-Lys (E. coli); settings: scale: times faster than the Thr-Ala-Ser-Arg-Arg and Asn-Leu-Thr-Ala-Arg fusions

Molecule: C[C@H](NC(=O)CCC(=O)O)C(=O)N[C@@H](C)C(=O)N[C@@H](CCCCN)C(=O)N[C@@H](CCCNC(=N)N)C(=O)Nc1ccc([N+](=O)[O-])cc1 [succinyl-AAKR-pNA] (HELM PEPTIDE1{[O=C(O)CCC(=O)[*:2]].A.A.K.R.[O=[N+]([O-])c1ccc(N[*:1])cc1]}$$$$V2.0)
- ratio of catalytic efficiency for succinyl-AAKR-pNA versus succinyl-AAPF-pNA [1]: 1.9×10^2
- catalytic efficiency (kcat/Km), fold less efficiently hydrolyzed than succinyl-RAKR-pNA [2]: 60 fold

Molecule: C[C@H](NC(=O)CCC(=O)O)C(=O)N[C@@H](C)C(=O)N1CCC[C@H]1C(=O)N[C@@H](CCCCN)C(=O)Nc1ccc([N+](=O)[O-])cc1 [Lys P1 substrate] (HELM PEPTIDE1{[O=C(O)CCC(=O)[*:2]].A.A.P.K.[O=[N+]([O-])c1ccc(N[*:1])cc1]}$$$$V2.0)
- ratio of catalytic efficiencies, times faster cleaved than the Phe P1 substrate [3]: about 3 times

Molecule: C[C@H](NC(=O)CCC(=O)O)C(=O)N[C@@H](C)C(=O)N[C@@H](CCCCN)C(=O)N[C@@H](CCCCN)C(=O)Nc1ccc([N+](=O)[O-])cc1 [Lys-Lys substrate] (HELM PEPTIDE1{[O=C(O)CCC(=O)[*:2]].A.A.K.K.[O=[N+]([O-])c1ccc(N[*:1])cc1]}$$$$V2.0)
- ratio of catalytic efficiencies, times faster cleaved than the Lys-Phe substrate ([1]; Lys-Lys versus Lys-Phe substrate): 18 times
- ratio of catalytic efficiencies, times faster cleaved than the Lys-Phe substrate [4]: about 8 times

B1: subtilisin BPN' from Bacillus amyloliquefaciens, wild type (WT), SEQ ID NO: 90 (Bacillus amyloliquefaciens) (protein)
chain: T1 sequence (P00782 108-382 N169D/G273D) with D62N, D166G
notes: correct folding and maturation of subtilisin requires autolytic cleavage of its propeptide
- kcat/Km, hydrolysis of succinyl-tetrapeptide-pNA (succinyl-AAPF-pNA): 260000 M⁻¹ s⁻¹
- kcat/Km, hydrolysis of succinyl-tetrapeptide-pNA (succinyl-AAKR-pNA): 1700 M⁻¹ s⁻¹
- Km ([5]; other: WT): 110 µM
- kcat ([5]; other: WT): 29 s⁻¹
- kcat/Km ([5]; other: WT): 260000 M⁻¹ s⁻¹
- Km ([6]; other: WT): 1700 µM
- kcat ([6]; other: WT): 2.8 s⁻¹

B2: subtilisin BPN' variant G166D (enzyme)
chain: T1 sequence (P00782 108-382 N169D/G273D) with D62N
- ratio of catalytic efficiencies, hydrolysis of succinyl-tetrapeptide-pNA (times faster than the Phe P1 substrate) [7]: 3

B3: subtilisin BPN' variant N62D/Y104D/G166D (SEQ ID NO: 75) (Bacillus amyloliquefaciens; G273D/N169D/Y211D) (protein)
chain: T1 sequence (P00782 108-382 N169D/G273D) with Y104D
notes: the mature enzyme +1 to +275; made in house; host or cells: Bacillus subtilis BG2036 (protease-deficient), secreted
- kcat/Km, hydrolysis of succinyl-tetrapeptide-pNA (succinyl-KAKR-pNA): 340000 M⁻¹ s⁻¹
- kcat/Km, hydrolysis of succinyl-tetrapeptide-pNA (succinyl-AAPF-pNA): 8 M⁻¹ s⁻¹
- kcat/Km, hydrolysis of succinyl-tetrapeptide-pNA (succinyl-AAKR-pNA): 8100 M⁻¹ s⁻¹
- kcat/Km, hydrolysis of succinyl-tetrapeptide-pNA (succinyl-RAKR-pNA): 490000 M⁻¹ s⁻¹
- Km ([6]; other: N62D/Y104D/G166D): 34 µM
- kcat ([6]; other: N62D/Y104D/G166D): 0.27 s⁻¹
- kcat/Km ([6]; other: N62D/Y104D/G166D): 8100 M⁻¹ s⁻¹
- Km [8]: 23 µM
- kcat [8]: 11 s⁻¹
- kcat/Km [8]: 490000 M⁻¹ s⁻¹
- Km [9]: 29 µM
- kcat [9]: 9.8 s⁻¹
- kcat/Km [9]: 340000 M⁻¹ s⁻¹

B4: subtilisin BPN' variant N62D/G166E (enzyme)
chain: T1 sequence (P00782 108-382 N169D/G273D) with D166E
- ratio of catalytic efficiencies, hydrolysis of succinyl-tetrapeptide-pNA (times faster than the Lys-Phe substrate) [10]: 8

B5: subtilisin BPN' variant N62D/G166D (mature enzyme SEQ ID NO: 72) (Bacillus amyloliquefaciens; G273D/N169D) (protein)
chain: T1 sequence (P00782 108-382 N169D/G273D)
notes: made in house; host or cells: Bacillus subtilis BG2036 (protease-deficient), secreted
- kcat/Km, hydrolysis of succinyl-tetrapeptide-pNA (succinyl-AAPF-pNA): 1900 M⁻¹ s⁻¹
- kcat/Km, hydrolysis of succinyl-tetrapeptide-pNA (succinyl-AAKR-pNA): 370000 M⁻¹ s⁻¹
- rate of cleavage of the fusion protein from the hGH receptor plate (released AP activity) [11]: 10
- ratio of catalytic efficiencies, hydrolysis of succinyl-tetrapeptide-pNA (times faster than a Lys-Phe substrate) [10]: 18
- Km ([5]; other: N62D/G166D): 1800 µM
- kcat ([5]; other: N62D/G166D): 3.4 s⁻¹
- kcat/Km ([5]; other: N62D/G166D): 1900 M⁻¹ s⁻¹
- Km ([6]; other: N62D/G166D): 41 µM
- kcat ([6]; other: N62D/G166D): 15 s⁻¹
- kcat/Km ([6]; other: N62D/G166D): 370000 M⁻¹ s⁻¹
